Target: T1, GST-BAK (human)
T1 chain: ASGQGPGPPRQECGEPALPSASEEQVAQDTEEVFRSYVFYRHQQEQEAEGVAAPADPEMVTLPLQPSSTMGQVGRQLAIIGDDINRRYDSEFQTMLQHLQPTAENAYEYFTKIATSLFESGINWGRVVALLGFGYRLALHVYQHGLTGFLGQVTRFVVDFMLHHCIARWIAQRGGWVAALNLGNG
Experiment: fluorescence polarisation; competitive: displacement of 10 nM BID BH3 SAHB-F from 1 µM GST-BAK by peptides at 500-0.2 µM; 50 mM Tris-HCl pH 7.5, 50 mM KCl, 0.1 mg/mL BSA, 2 mM DTT, 0.005% Tween-20; 60 min at RT
Conditions: both partners purified

Ac-EDWIRNIARHLAQVGDSMDRSI-NH2 [W(0') BID BH3 peptide] gave an IC50 of 27.4 ± 16.4 µM.
